What was measured:
human epidermal cells = format: cell-based
[1] = Acquisition of cocaine conditioned place preference (CPP); format: in vivo, mouse; settings: 10 mg/kg cocaine i.p., grafted cocaine-naïve mice
Description: CPP apparatus: The CPP apparatus (FIG. 17; Med Associates, E. Fairfield, VT, USA) consisted of two larger chambers (16.8×12.7×12.7 cm), which were separated by a smaller chamber (7.2×12.7×12.7 cm) as previously described (Yan et al., 2013). […] Time spent in each chamber was measure via photobeam breaks and recorded. CPP was determined on testing days via time spent in the drug-paired side minus time spent in the saline-paired side.
Acquisition of CPP: A biased CPP procedure was used similar to that from a previous study (Yan et al., 2013). Acquisition of CPP consisted of three sequential procedures—pretest, conditioning, and test. […] On Day 6 (test day) mice were allowed to explore the entire chambers for 20 min and time spent in each area was recorded. […]
Next, protection against development of cocaine-seeking was assessed using the conditioned place preference (CPP) paradigm, which is thought to model reward learning and seeking because experimental animals approach and remain in contact with cues that have been paired with the effects of the reward. hBChE-expressing cells were grafted to cocaine-naïve mice with GWT animals as controls. […] As an additional control, ethanol CPP was measured after 4 days of conditioning in GhBChE and GWT mice.

[2] = Extinction and cocaine-induced reinstatement of CPP; format: in vivo, mouse; settings: grafted after CPP acquisition; priming 15 mg/kg cocaine
Description: Extinction and reinstatement of CPP: Following CPP acquisition, mice underwent extinction, in which the procedure was identical to that in the test day. In each extinction day, mice were allowed to explore the entire chambers for 20 min and time spent in each area was recorded. Extinction was performed until the CPP decreased to a level that was not different from that of the pretest in consecutive two days. On the following day of the last extinction, mice underwent reinstatement procedures, in which mice that were trained for cocaine CPP received an i.p. injection of 15 mg/kg cocaine, and mice that were trained for ethanol CPP received an i.p. injection of 1 g/kg ethanol. Immediate after injection, mice were allowed to explore the entire chambers for 20 min and time spent in each area was recorded.
Specific methods: One group of GhBChE and one group of GWT mice (n=9 in each group) were trained for cocaine CPP 7 days after engraftment (FIG. 18A). Mice underwent pretest on Day 1, four days of cocaine conditioning day 2 to Day 5, and CPP test on Day 6. One group of GhBChE and one group of GWT mice (n=8 in each group) were trained for ethanol CPP 7 days after engraftment (FIG. 18B). Mice underwent pretest on Day 1, four ethanol conditioning day 2 to Day 5, and CPP test on Day 6. […]

B1: hBChE: modified human butyrylcholinesterase (E30-6, SEQ ID NO: 41), cocaine hydrolase, expressed from engineered epidermal cells / skin grafts (protein)
chain: MHSKVTIICIRFLFWFLLLCMLIGKSHTEDDIIIATKNGKVRGMNLTVFGGTVTAFLGIPYAQPPLGRLRFKKPQSLTKWSDIWNATKYANSCCQNIDQSFPGFHGSEMWNPNTDLSEDCLYLNVWIPAPKPKNATVLIWIYGGGFQTGTSSLHVYDGKFLARVERVIVVSMNYRVGALGFLALPGNPEAPGNMGLFDQQLALQWVQKNIAAFGGNPKSVTLFGESSGAASVSLHLLSPGSHSLFTRAILQSGSANAPWAVTSLYEARNRTLNLAKLTGCSRENETEIIKCLRNKDPQEILLNEAFVVPYGTALGVNFGPTVDGDFLTDMPDILLELGQFKKTQILVGVNKDEGTWFLVGGAPGFSKDNNSIITRKEFQEGLKIFFPGVSEFGKESILFHYTDWVDDQRPENYREALGDVVGDYNFICPALEFTKKFSEWGNNAFFYYFEHRSSKLPWPEWMGVMHGYEIEFVFGLPLERRDNYTKAEEILSRSIVKRWANFAKYGNPNETQNNSTSWPVFKSTEQKYLTLNTESTRIMTKLRAQQCRFWTSFFPKVLEMTGNIDEAEWEWKAGFHRWNNYMMDWKNQFNDYTSKKESCVGL
modifications: Human mutant BChE
For B1, the hBChE production (human epidermal cells) was “strong hBChE production”, the “cocaine CPP after 4 days of place conditioning” value [1] was “showed no such preference” and the “cocaine-induced reinstatement of preference” value [2] was “restored in the GWT mice but not in the GhBChE mice”.
